The target in assay [1] is cytosolic domain of Photorhabdus luminescens LscV (LscVC; residues 357–705) (Photorhabdus luminescens (Table 1: Photorhabdus laumondii TT01)). The experiment in a line: crystal structure.
The target is the same in assay [2]. Kind of assay: crystal structure. The source holds these as a separate data set.
The target of assay [3] is cytosolic domain of Aeromonas hydrophila AscV (AscVC; residues 375–721) (Aeromonas hydrophila AH3).

Like-named read-outs stand apart in the source and are kept apart here.

Take “cytosolic domain of Photorhabdus luminescens LscV (LscVC; residues 357–705) (domain or fragment)”: the stoichiometry N is 8 in assay [1] and 9 in assay [2]. Regarding “cytosolic domain of Aeromonas hydrophila AscV (AscVC; residues 375–721) (domain or fragment)”, the stoichiometry N in assay [3] came to 10.

As usually defined, the stoichiometry N is the number of molecules, sites or subunits per partner or assembly.

Values taken from PMC9629515.
